Results as given in US9539338B2, “Polymer-based protein engineering methods to rationally tune enzyme activity, pH-dependence and stability” (Carnegie Mellon University, priority 2013, dated 2017).

Legend:
NS-AAPF-pNA = target: T1, NS-AAPF-pNA (Bos taurus, UniProt P00766); assay: CT and CT conjugate biocatalytic activity, 2.5 to 37.5° C.; assay type: biochemical
T1 construct: purchased Sigma Aldrich; host or cells: bovine pancreas
Experimental: N-succinyl-L-Ala-L-Ala-L-Pro-L-Phe-p-nitroanilide was used as a substrate for enzyme bioactivity assays. In a cuvette, 0.1 M sodium phosphate buffer (2820-2970 μL, pH 8.0), substrate (0-150 μL, 6 mg/mL in DMSO (0-500 μM)), and enzyme (30 μL, 0.1 mg enzyme/mL 0.1 M pH 8.0 sodium phosphate buffer (0.04 μM)) were mixed. The rate of the hydrolysis was determined by recording the increase in absorbance at 412 nm for the first 30 seconds after mixing. KM and kcat values were calculated using EnzFitter software when plotting substrate concentration versus initial hydrolysis velocity.
CT conjugate kinetics were examined at a variety of temperatures (2.5° C., 7° C., 16.5° C., 24.5° C., 33° C., and 37.5° C.) to determine the effect of polymer UCST and LCST phase transitions and molecular weight on enzyme kinetics (see FIGS. 11(a)-(c) and Table 16 below).

pepsin = target: T2, pepsin (Sus scrofa, UniProt P00791); assay: Stability to pepsin degradation; assay type: in vitro ADME, porcine; conditions: 167 mM HCl, 37° C.
T2 construct: purchased Sigma Aldrich; host or cells: porcine stomach mucosa
T2 sequence (P00791 60-385): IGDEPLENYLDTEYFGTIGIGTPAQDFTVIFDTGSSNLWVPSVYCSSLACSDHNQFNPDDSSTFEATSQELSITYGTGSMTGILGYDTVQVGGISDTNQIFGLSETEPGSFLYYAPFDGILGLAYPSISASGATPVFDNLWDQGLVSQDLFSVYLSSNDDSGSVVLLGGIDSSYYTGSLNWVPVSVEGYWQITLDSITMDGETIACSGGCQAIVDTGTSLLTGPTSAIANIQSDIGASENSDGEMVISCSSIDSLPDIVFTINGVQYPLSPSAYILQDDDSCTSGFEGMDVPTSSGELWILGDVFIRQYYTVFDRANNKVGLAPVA
Experimental: Native CT and CT-conjugates (4 μM) were incubated in 167 mM HCl with 16 nM pepsin at 37° C. in 50 μL aliquots. Samples were retrieved at specified time points and residual activity was measured in 0.1 M sodium phosphate buffer (pH 8.0) at 25° C. with Suc-AAPF-pNA as substrate (288 μM). Each time point was measured in duplicate and residual activity was calculated as the ratio of activity remaining from time zero. As a control, pepsin (16 nM) bioactivity towards Suc-AAPF-pNA was measured at pH 8.0 and no product formation was observed.

[1] = Stability at 50 or 60° C. (chymotrypsin-pQA); assay type: physicochemical; conditions: 0.1 M sodium phosphate buffer pH 8.0
Experimental: […] Aliquots (50 μL) were removed and kept at 0° C. before measuring residual activity. The residual activity was calculated as a ratio of initial rates of hydrolysis reaction at given incubation time over the initial activity for each specific sample.

[2] = Stability study: irreversible inactivation at 40° C., pH 7-9, residual activity; assay type: physicochemical; conditions: for half-life t1/2: 40 μM enzyme
Experimental: Native CT and the prepared conjugates (1.5 to 2.0 mL of 40.0 μM) were incubated in 100 mM sodium phosphate buffer at different pH's at 40° C. Aliquots (20 μL) were removed and added into sodium phosphate buffer (180 μL, 100 mM, at 0° C.). The residual activity was calculated as a ratio of initial rates of hydrolysis reaction at given incubation time over the initial activity, which monitored spectrophotometrically as described above. Half-lives for enzyme longevity were estimated by non-linear curve fitting (equation for single exponential decay) using Enzfitter.
CT inactivation can occur through unfolding and/or autolysis. The polymer component of the PBPE conjugates may stabilize the enzyme by increasing the energy needed to unfold the protein and also by inhibiting autolysis directly. Since the autolysis reaction of proteases is favored when the enzyme concentration is high, (Yang, Z.; Domach, M.; Auger, R.; Yang, F. X.; Russell, A. J. Enzyme Microb. Technol. 1996, 18, 82-89) stability at relatively high enzyme concentration (40 μM) was investigated. At 40° C. the residual activity of the enzyme was measured as a function of pH and shown in FIG. 8, and the first order rate constant for deactivation and half-life were calculated (Table 5).

[3] = target: T3, Bowman-Birk trypsin-chymotrypsin inhibitor from glycine max (GM) (Glycine max, UniProt P01055); assay: Inhibitor binding study with Bowman-Birk inhibitor from glycine max; assay type: biochemical, glycine max (soybean); conditions: for Apparent Vmax / KM/Vmax: pH 8.0
T3 construct: purchased Sigma Aldrich; bovine pancreas for chymotrypsin
Experimental: FIGS. 24A and B show (A) Substrate/initial velocity plots and (B) secondary plots to determine inhibitor constant for native chymotrypsin with GM in 0.1 M sodium phosphate buffer (pH 8) at 25° C. […]
FIGS. 25A and B show (A) Substrate/initial velocity plots and (B) secondary plots to determine inhibitor constant for chyomtrypsin-pQA200 with GM in 0.1 M sodium phosphate buffer (pH 8) at 25° C. […]
Enzyme inhibition was assayed by measuring the hydrolytic activities of samples which contained a fixed concentration of protease and varying amounts of inhibitor, including a blank with no inhibitor. Inhibitors and peptide substrate were simultaneously added to the native and conjugate solutions immediately before measuring initial rates. The initial rate of hydrolysis of the peptide substrate was monitored by recording the increase in absorption at 412 nm. To determine dissociation constant of the enzyme-inhibitor complexes (Ki), Vmax app and KM app were determined by non-linear curve fitting (equation for Michaelis-Menten parameters) of plots of initial rate versus substrate concentration using the Enzfitter software. The dissociation constants were calculated from secondary plot of KM app/Vmax app versus initial inhibitor concentration.

[4] = Stability in artificial gastric acid solution, 167 mM HCl, 37° C. (chymotrypsin-pQA); assay type: physicochemical; conditions: 167 mM HCl (pH 1)
Experimental: Native CT and conjugates (1.5 to 2.0 mL, 4.0 μM) were incubated in 100 mM sodium phosphate buffer (pH 7.0) at 50 or 60° C., and an artificial gastric acid solution (167 mM HCl aq. pH 1.5) at 37° C. Aliquots (50 μL) were removed and kept at 0° C. before measuring residual activity. The residual activity was calculated as a ratio of initial rates of hydrolysis reaction at given incubation time over the initial activity for each specific sample.

α-Chymotrypsin (CT) from bovine pancreas (type II) [Native CT]
Km (NS-AAPF-pNA; 2.5° C., 0.1 M sodium phosphate pH 8.0): 30 ± 5.1 µM | kcat (NS-AAPF-pNA; 2.5° C., pH 8.0): 8.9 ± 0.4 s⁻¹ | kcat (NS-AAPF-pNA; 2.5° C., pH 8.0, listed as native chymotrypsin): 8.9 ± 0.4 s⁻¹ | Km (NS-AAPF-pNA; 7° C., pH 8.0): 29 ± 6.9 µM | kcat (NS-AAPF-pNA; 7° C., pH 8.0): 9.7 ± 0.5 s⁻¹ | kcat (NS-AAPF-pNA; 7° C., pH 8.0, listed as native chymotrypsin): 9.7 ± 0.5 s⁻¹ | Km (NS-AAPF-pNA; 16.5° C., pH 8.0): 37 ± 8.6 µM | kcat (NS-AAPF-pNA; 16.5° C., pH 8.0): 16 ± 0.9 s⁻¹ | kcat (NS-AAPF-pNA; 16.5° C., pH 8.0, listed as native chymotrypsin): 16 ± 0.9 s⁻¹ | Km (NS-AAPF-pNA; 24.5° C., pH 8.0): 51 ± 8.7 µM | kcat (NS-AAPF-pNA; 24.5° C., pH 8.0): 25 ± 1.3 s⁻¹ | kcat (NS-AAPF-pNA; 24.5° C., pH 8.0, listed as native chymotrypsin): 25 ± 1.3 s⁻¹ | Km (NS-AAPF-pNA; 33° C., pH 8.0): 57 ± 5 µM | kcat (NS-AAPF-pNA; 33° C., pH 8.0): 36 ± 1.3 s⁻¹ | kcat (NS-AAPF-pNA; 33° C., pH 8.0, listed as native chymotrypsin): 36 ± 1.3 s⁻¹ | Km (NS-AAPF-pNA; 37.5° C., pH 8.0): 59 ± 6.9 µM | kcat (NS-AAPF-pNA; 37.5° C., pH 8.0): 47 ± 1.7 s⁻¹ | kcat (NS-AAPF-pNA; 37.5° C., pH 8.0, listed as native chymotrypsin): 47 ± 1.7 s⁻¹ | time after which all activity was lost (pepsin): 75 min | time after which all activity was lost ([1]; 50° C.): 2 h | time in which all activity was lost ([1]; 60° C.): 30 min | half-life t1/2 ([2]; pH 7.0, 40° C.): 7.15 ± 0.91 h | half-life t1/2 ([2]; pH 7.0, 40° C., listed as native enzyme): 7.2 h | initial activity retained ([2]; pH 7, 40° C., after 6 h): 50% | half-life t1/2 ([2]; pH 8.0, 40° C.): 1.95 ± 0.25 h | half-life t1/2 ([2]; pH 9.0, 40° C.): 1.53 ± 0.20 h | biocatalytic activity lost ([2]; pH 9, 40° C., after 6 h): 70-80% | GM Ki, fold higher than chymotrypsin-pQA198 ([3]; GM): ~4 fold | Apparent Vmax ([3]; GM [I]0 0 mM, 25° C.): 1.10 mM/s | KM/Vmax ([3]; GM [I]0 0 µM, 25° C.): 71.8 s⁻¹ | KM/Vmax ([3]; GM [I]0 0.049 µM, 25° C.): 90.4 s⁻¹ | KM/Vmax ([3]; GM [I]0 0.098 µM, 25° C.): 102.2 s⁻¹ | KM/Vmax ([3]; GM [I]0 0.147 µM, 25° C.): 150.1 s⁻¹ | KM/Vmax ([3]; GM [I]0 0.196 µM, 25° C.): 159.9 s⁻¹ | KM/Vmax ([3]; GM [I]0 0.294 µM, 25° C.): 188.0 s⁻¹ | Apparent Vmax ([3]; GM [I]0 0.049 mM, 25° C.): 1.05 mM/s | Apparent Vmax ([3]; GM [I]0 0.098 mM, 25° C.): 1.18 mM/s | Apparent Vmax ([3]; GM [I]0 0.147 mM, 25° C.): 1.21 mM/s | Apparent Vmax ([3]; GM [I]0 0.196 mM, 25° C.): 1.23 mM/s | Apparent Vmax ([3]; GM [I]0 0.294 mM, 25° C.): 1.14 mM/s | Ki ([3]; inhibitor Glycine Max, 25° C.): 0.172 µM | time after which all activity was lost [4]: 3 h
